This note sets out measurements from patent US20240016923A1.

In general, pKd refers to the negative decadic logarithm of the Kd, by convention in mol/L.

pKd: −log10 of the molar value.

Test in all cases: dose-dependent ELISA, antigen captured by GNA lectin
A general note: An ELISA detects its analyte on a solid surface through an enzyme-linked reagent.

Assay [1] deals with membrane-bound E1E2 (mbE1E2) (Hepatitis C virus, isolate H77C (genotype 1a)) (UniProt P27958).
Assay [2] addresses secreted E2 ectodomain (sE2), HCV E2 residues 384-661 (Hepatitis C virus, isolate H77C) (UniProt P27958).
Assay [3] has as its target secreted E1E2 with c-Fos/c-Jun leucine zipper scaffold (sE1E2.LZ) (Hepatitis C virus H77; human).

Take HCV1 (antibody): the pKd was 8.01 in assay [1], 8.21 in assay [2] and 8.46 in assay [3].
As to HC84.24 (antibody), in assay [2], the pKd was 9.15.
For AR5A (antibody), the pKd in assay [1] was 8.82; in assay [3], 8.77.
For the substance CBH-4G (antibody), the pKd in assay [1] was 8.11; in assay [2], 9.30; in assay [3], 7.74.
AR4A (antibody): the pKd in assay [1] was 8.64; in assay [3], 7.80. In addition, the fold lower affinity relative to mbE1E2 in assay [3] was 8 fold.
For the substance “HC-1 AM (affinity-matured HC-1 antibody)”, the pKd in assay [1] is 8.82; in assay [2] it was 8.44; in assay [3], 8.54.
The matching figures for HC33.1 (antibody): 8.42, 8.72 and 9.05.
The matching figures for CBH-7 (antibody): 9.00, 9.52 and 8.77.
The matching figures for HC-11 (antibody): 8.74, 7.96 and 8.49.
In the case of CBH-4D (antibody), the pKd in assay [1] is 7.55; in assay [2] it was 9.00; in assay [3] it was 7.59.
